Experimental data reported in article PMC6323120.

Target: T1, TNFR1, P19438
T1 chain: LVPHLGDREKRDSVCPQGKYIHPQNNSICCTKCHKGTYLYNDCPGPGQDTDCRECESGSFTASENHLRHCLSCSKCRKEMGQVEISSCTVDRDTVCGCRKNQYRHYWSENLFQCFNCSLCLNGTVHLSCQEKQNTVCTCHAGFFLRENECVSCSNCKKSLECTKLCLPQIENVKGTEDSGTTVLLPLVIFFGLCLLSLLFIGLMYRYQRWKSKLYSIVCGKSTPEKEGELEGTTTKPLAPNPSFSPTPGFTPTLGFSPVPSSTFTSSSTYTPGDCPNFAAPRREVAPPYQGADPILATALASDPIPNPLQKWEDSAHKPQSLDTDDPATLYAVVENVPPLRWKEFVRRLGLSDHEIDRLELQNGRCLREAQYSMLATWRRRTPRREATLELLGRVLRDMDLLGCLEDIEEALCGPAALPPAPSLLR
Test: quantitative single-molecule localization microscopy (dSTORM/PALM); TNFR1 in the plasma membrane at physiological cell surface expression levels, upon TNF binding
Conditions: remark: other sources report otherwise

B1: TNFR1, P19438 30-455 (receptor)
chain: T1 chain
stoichiometry N: > 3
